T1: DHD39 chain b
T1 construct: In the NOR gate it was fused to the Gal4 DBD; also called 10′; DHD_39 b
T1 chain: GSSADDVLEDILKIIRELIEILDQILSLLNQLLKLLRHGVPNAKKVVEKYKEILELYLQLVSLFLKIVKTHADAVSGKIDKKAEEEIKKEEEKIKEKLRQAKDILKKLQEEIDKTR

T2: DHD17 chain b
T2 construct: Co-expressed input protein of the NOT gate; also called 8′
T2 chain: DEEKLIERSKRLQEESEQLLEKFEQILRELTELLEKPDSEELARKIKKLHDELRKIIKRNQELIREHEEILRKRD

T3: DHD37_1:234 chain b
T3 construct: Single-helix monomer of the backbone-permuted 3+1 heterodimer
T3 chain: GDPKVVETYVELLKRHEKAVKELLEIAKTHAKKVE

T4: 2′-1′_6-residue_linker
T4 construct: also called 1′-2′; 1′-2′ with a 6-residue linker
T4 chain: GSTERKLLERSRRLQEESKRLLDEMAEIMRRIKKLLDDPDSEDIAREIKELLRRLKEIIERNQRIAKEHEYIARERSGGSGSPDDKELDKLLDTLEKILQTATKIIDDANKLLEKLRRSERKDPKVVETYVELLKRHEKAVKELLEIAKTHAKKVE

T5: DHD9 chain b
T5 construct: also called 9b; 9_b
T5 chain: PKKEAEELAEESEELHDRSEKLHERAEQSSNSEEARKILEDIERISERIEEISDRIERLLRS

T6: DHDSC_9-13-37 chain 13b
T6 chain: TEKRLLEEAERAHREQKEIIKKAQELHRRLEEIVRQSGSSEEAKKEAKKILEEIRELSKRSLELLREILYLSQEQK

T7: DHD127 chain b
T7 construct: also called DHD_127 b
T7 chain: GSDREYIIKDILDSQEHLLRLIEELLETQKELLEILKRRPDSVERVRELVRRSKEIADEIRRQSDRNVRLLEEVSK

B1: DHD39 chain a (designed binder)
chain: DHSRKLEEILDRLRKHVKRLLEHLRELLSLVKENPEDKDLVEVLELSLAILRRSLEAVEAFLKSVTKKDPDDEDLRRKADEIRKEVEEIKKSLAEVEKEIYKLK
notes: also called 10; DHD_39 a
B2: DHD17 chain a (designed binder)
chain: DRKDLLKRNIKLLDRHLKILDTILKLLEKLSELLKKSSSEEVVKEYKKILDEIRKLLEESKEIHKESKEILERES
notes: In the NOT gate it was fused to both Gal4 AD and DBD; also called DHS 17 a
B3: DHD13_XAAA chain b (designed binder)
chain: GTEKRLLEEAERAHREQKEIIKKAQELHRRLEEIVRQSGSSEEAKKEAKKILEEIRELSKRSLELLREILYLSQEQKGSLVPR
notes: also called 9′
B4: DHD37_ABXB chain b (designed binder)
chain: GSDDKELDKLLDTLEKILQTATKIIDDANKLLEKLRRSERKDPKVVETYVELLKRHEKAVKELLEIAKTHAKKVE
notes: Used in Y2H as a co-expressed input or fused to Gal4 AD/DBD; also called 1′; 1′ (b)
B5: DHD13_XAAA chain a (designed binder)
chain: GTKEDILERQRKIIERAQEIHRRQQEILEELERIIRKPGSSEEAMKRMLKLLEESLRLLKELLELSEESAQLLYEQR
B6: DHD37_1:234 chain a (designed binder)
chain: DSDEHLYKLKTFLENLRRHLDRLDKHIKQLRDILSENPEDERVKDAIDLSERSVRIVKTVIKIFEDSVRKKEKRPIDKRDDKELDKLLDTLEKILQTATKIIDDANKLLEYLRR
notes: Three-helix monomer of the backbone-permuted 3+1 heterodimer
B7: DHD37_ABXB chain a (designed binder)
chain: DSDEHLKKLKTFLENLRRHLDRLDKHIKQLRDILSENPEDERVKDVIDLSERSVRIVKTVIKIFEDSVRKKE
notes: In Y2H it was fused to Gal4 AD or DBD
B8: DHDSC_9-13-37 scaffold, chain 9a-13a-37a (designed binder)
chain: PKEEARELIRKQKELIKEQKKLIKEAKQKSDSRDAERIWKRSREINRESKKINKRIKELIKSGSEGSGSEGSGSTKEDILERQRKIIERAQEIHRRQQEILEELERIIRKPGSSEEAMKRMLKLLEESLRLLKELLELSEESAQLLYEQRGSEGSGSEGSGSDSDEHLKKLKTFLENLRRHLDRLDKHIKQLRDILSENPEDERVKDVIDLSERSVRIVKTVIKIFEDSVRKKE
B9: DHD127 chain a (designed binder)
chain: GSPRSYLLKELADLSQHLVRLLERLVRESERVVEVLERGEVDEEELKRLEDLHRELEKAVREVRETHREIRERSR
notes: also called DHD_127 a

Assays:
[1] = target: T1, DHD39 chain b; assay: individual yeast two-hybrid experiments
[2] = target: T2, DHD17 chain b; assay: yeast two-hybrid
[3] = target: the molecule itself; assay: yeast two-hybrid
[4] = target: B4; assay: individual yeast two-hybrid experiments
[5] = target: B7; assay: individual yeast two-hybrid experiments
[6] = target: B3; assay: yeast two-hybrid competition by the co-expressed unfused monomer
[7] = target: T3, DHD37_1:234 chain b; assay: X-ray crystal structure of the heterodimer
From the text: (§2) The X-ray data sets were collected at the Advanced Light Source at Lawrence Berkeley National Laboratory with beamlines 8.2.1 and 8.2.2. Data sets were indexed and scaled using either XDS³³ or HKL2000³⁴. Initial models were generated by the molecular-replacement method with the program PHASER³⁵ within the Phenix™ software suite³⁶, using the design models as the initial search models. Efforts were made to reduce model bias through refinement with simulated annealing using Phenix.Refine™³⁷, or, if the resolution was sufficient, by using Phenix.Autobuild™³⁸ with rebuild-in-place set to false, simulated annealing and prime-and-switch phasing. Iterative rounds of manual building in COOT³⁹ and refinement in Phenix™ were used to produce the final models. […] RMSDs of bond lengths, angles and dihedrals from ideal geometries were calculated with Phenix™³⁶.

[8] = target: T4, 2′-1′_6-residue_linker; assay: thermodynamic model matched to native MS titration data
From the text: (§1) We studied the cooperativity of the induced dimerizer system in vitro using native mass spectrometry (FIG. 11F). […] We define cooperativity as the ratio of the affinities in the presence and absence of the other monomer, which in our model directly relates to the free energy of opening of the dimerizer (c=e^ΔG^ₒₚₑₙ^{/RT}, see supplementary materials).

[9] = target: T4, 2′-1′_6-residue_linker; assay: calculated from the cooperativity factor fitted to native MS data
From the text: as §1
We experimentally estimated K₁ using native MS experiments.

[10] = target: T4, 2′-1′_6-residue_linker; assay: native mass spectrometry, 10 µM of 1 and 1′-2′; bound from the detection limit of 0.0375 µM
[11] = target: T5, DHD9 chain b; assay: co-expression in E. coli, one b monomer His-tagged
[12] = target: T6, DHDSC_9-13-37 chain 13b; assay: co-expression in E. coli, one b monomer His-tagged
[13] = target: T7, DHD127 chain b; assay: X-ray crystal structure of the heterodimer
From the text: as §2

## B1
[1]
  binding result: binds

## B2
[2]
  binding result: binds
[3]
  binding result: binds

## B3
[4]
  binding result: binds

## B4
[1]
  binding result: binds

## B5
[5]
  binding result: binds
[1]
  binding result: binds
[6]
  binding result: binds

## B6
[7]
  binding result: binds

## B7
[4]
  binding result: binds
[8]
  cooperativity c (ratio of the affinities in the presence and absence of the other monomer): 991000
[9]
  Kd: 9.91 mM
[10]
  Kd: 2.65 mM

## B8
[11]
  binding result: binds
[12]
  binding result: binds

## B9
[13]
  binding result: binds

From patent US20210355175A1 (University of Washington, published 2021)
